This passage reports binding result and Kd results from PMC3458545 (Nucleic Acids Research, 2012).

For data set [1], the target named is T1, RecQL4_N54 (human (Homo sapiens), UniProt O94761 1-54).
T1 sequence: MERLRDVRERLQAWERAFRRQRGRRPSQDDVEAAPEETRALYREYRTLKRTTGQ
Put plainly: EMSA. In general terms: In EMSA bound probe runs differently from free probe, usually more slowly.

Data set [2] has as its target GST-TopBP1 (a.a. 1233–1522) (human, UniProt Q92547 1233-1522). In words: SPR. On the technique in general: SPR reads the build-up and loss of mass on a sensor chip optically.

Sequence of GST-TopBP1 (a.a. 1233–1522) (Q92547 1233-1522): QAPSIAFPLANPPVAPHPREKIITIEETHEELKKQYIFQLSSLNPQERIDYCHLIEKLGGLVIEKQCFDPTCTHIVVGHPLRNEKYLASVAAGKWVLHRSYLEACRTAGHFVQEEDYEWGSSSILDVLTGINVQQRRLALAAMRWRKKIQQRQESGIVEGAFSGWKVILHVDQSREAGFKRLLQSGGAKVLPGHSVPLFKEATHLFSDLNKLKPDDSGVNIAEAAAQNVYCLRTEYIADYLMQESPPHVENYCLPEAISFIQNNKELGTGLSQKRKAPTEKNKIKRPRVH

B1: M2-M4 Y (mixed)
DNA 1: GCTTGCATGCCTGCAGGCCAGCCTCAATCTCATC
DNA 2: ATCCTCTCTAGAGTCGACCTGCAGGCATGCAAGC
For the molecule B1, in data set [1], the binding result is “binds”.

B2: S4-M3 Y (mixed)
DNA 1: ATCCTCTCTAGAGTCAAGGTCGGAGTTAGAGTAG
DNA 2: CTACTCTAACTCCGACCGCTTGCATGCCTGCAGG
In the case of B2, in data set [1], the binding result is on record as “binds”.

B3: RecQL4_N54 (domain or fragment, human)
chain: GSMERLRDVRERLQAWERAFRRQRGRRPSQDDVEAAPEETRALYREYRTLKRTTGQ
One may read the Kd as a measure of binding affinity in units of concentration. For the molecule B3, the Kd in data set [2] is ~70 µM.
